Reference: PMC4132065 (2014)

B1: LexA BD-Pxa2_NBD-CT [S. cerevisiae] / Gal4 AD-Pxa1_NBD-CT [S. cerevisiae] (parent complex)
chain 1: GNDMTADFITNRRLLVTASSSIGRFVELKRNIQQLRGIRLRLNKFNDLLDANKGDDEKEPRDERCIVEYDDSRIKFENIPLITPANQVLVPELSFDLKHGNHLLIIGPNGCGKSSLFRILGGLWPIRATPNKNHQSKLIMPRRTVDRDCAIFYLPQRPYMGNRSTFREQIIYPDSIEQFKERYHNDYDLGDADLIKILQLLDLEDLVTENMSLLLAQRTSKNDSQQLSTEDNQSPCAIKVRDAFSIVRNWSEELTIGVQQRLAMARMYYHKPKFAVLDECTSAVAPEMEQRMYENAQNFGISLISVCHRTSLWHFHNYLLKFDGKGGYQFGPFNPKERLCNEEKLLELNAILDQQVPLWERKLKDLTIAKESNIIRKSETNLNLFEKIEDPKTSKSNALFNANKGQRITSPTGQETSKRLPLFSQPSSSASSNLLRNNKSLNKKVKTKKEEGKER
chain 2: SRLMHSIKDISQLTGYTNRIFTLLSVLHRVHSLNFNYGAVPSILSIRTEDASRNSNLLPTTDNSQDAIRGTIQRNFNGIRLENIDVIIPSVRASEGIKLINKLTFQIPLHIDPITSKSNSIQDLSKANDIKLPFLQGSGSSLLILGPNGCGKSSIQRIIAEIWPVYNKNGLLSIPSENNIFFIPQKPYFSRGGTLRDQIIYPMSSDEFFDRGFRDKELVQILVEVKLDYLLKRGVGLTYLDAIADWKDLLSGGEKQRVNFARIMFHKPLYVVLDEATNAISVDMEDYLFNLLKRYRFNFISISQRPTLIKYHEMLLEIGENRDGKWQLQAVGTDEAITSIDNEIEELERKLERVKGWEDERTKLREKLEII
B2: LexA BD-Pxa2_NBD-CT [S. cerevisiae] / Gal4 AD-Pxa1_NBD [S. cerevisiae] (parent complex)
chain 1: B1 chain 1
chain 2: SRLMHSIKDISQLTGYTNRIFTLLSVLHRVHSLNFNYGAVPSILSIRTEDASRNSNLLPTTDNSQDAIRGTIQRNFNGIRLENIDVIIPSVRASEGIKLINKLTFQIPLHIDPITSKSNSIQDLSKANDIKLPFLQGSGSSLLILGPNGCGKSSIQRIIAEIWPVYNKNGLLSIPSENNIFFIPQKPYFSRGGTLRDQIIYPMSSDEFFDRGFRDKELVQILVEVKLDYLLKRGVGLTYLDAIADWKDLLSGGEKQRVNFARIMFHKPLYVVLDE

Variants of: B1
Assay: yeast two-hybrid, quantified with Yeast β-Galactosidase Assay Kit (Thermo); n = 3; parent: 190; read off a plot

Row | Variant | response
1 | chain 1 F333A | ~69
2 | chain 1 Y328L | ~38

Variants of: B2
Assay: yeast two-hybrid, quantified with Yeast β-Galactosidase Assay Kit (Thermo); n = 3; parent: 185; read off a plot

Row | Variant | response
3 | chain 1 Y328L | ~17
4 | chain 1 F333A | ~41
